Laboratory results from publication PMC9381698, “Generation of synthetic antibody fragments with optimal complementarity determining region lengths for Notch-1 recognition” (Frontiers in Microbiology, 2022).
Blank lines part the entries; values can stand above or below the binder they belong to.

What was measured:
Conditions in all cases: both partners purified
[1] = target: T1, Jagged-2 receptor ectodomain (Homo sapiens (assumed), UniProt Q9Y219); experiment: BLI; Octet RED384; Fabs immobilised on amine-reactive generation-2 or anti-Fab CH1 biosensors, target proteins in solution at three or more concentrations; 25 C, PBS; global 1:1 fit; apparent KD (Fc-Notch proteins may dimerize, avidity)
T1 construct: Jagged-2 ectodomain; it may be an Fc fusion like the Notch proteins; also called J2
T1 sequence (Q9Y219 27-1080): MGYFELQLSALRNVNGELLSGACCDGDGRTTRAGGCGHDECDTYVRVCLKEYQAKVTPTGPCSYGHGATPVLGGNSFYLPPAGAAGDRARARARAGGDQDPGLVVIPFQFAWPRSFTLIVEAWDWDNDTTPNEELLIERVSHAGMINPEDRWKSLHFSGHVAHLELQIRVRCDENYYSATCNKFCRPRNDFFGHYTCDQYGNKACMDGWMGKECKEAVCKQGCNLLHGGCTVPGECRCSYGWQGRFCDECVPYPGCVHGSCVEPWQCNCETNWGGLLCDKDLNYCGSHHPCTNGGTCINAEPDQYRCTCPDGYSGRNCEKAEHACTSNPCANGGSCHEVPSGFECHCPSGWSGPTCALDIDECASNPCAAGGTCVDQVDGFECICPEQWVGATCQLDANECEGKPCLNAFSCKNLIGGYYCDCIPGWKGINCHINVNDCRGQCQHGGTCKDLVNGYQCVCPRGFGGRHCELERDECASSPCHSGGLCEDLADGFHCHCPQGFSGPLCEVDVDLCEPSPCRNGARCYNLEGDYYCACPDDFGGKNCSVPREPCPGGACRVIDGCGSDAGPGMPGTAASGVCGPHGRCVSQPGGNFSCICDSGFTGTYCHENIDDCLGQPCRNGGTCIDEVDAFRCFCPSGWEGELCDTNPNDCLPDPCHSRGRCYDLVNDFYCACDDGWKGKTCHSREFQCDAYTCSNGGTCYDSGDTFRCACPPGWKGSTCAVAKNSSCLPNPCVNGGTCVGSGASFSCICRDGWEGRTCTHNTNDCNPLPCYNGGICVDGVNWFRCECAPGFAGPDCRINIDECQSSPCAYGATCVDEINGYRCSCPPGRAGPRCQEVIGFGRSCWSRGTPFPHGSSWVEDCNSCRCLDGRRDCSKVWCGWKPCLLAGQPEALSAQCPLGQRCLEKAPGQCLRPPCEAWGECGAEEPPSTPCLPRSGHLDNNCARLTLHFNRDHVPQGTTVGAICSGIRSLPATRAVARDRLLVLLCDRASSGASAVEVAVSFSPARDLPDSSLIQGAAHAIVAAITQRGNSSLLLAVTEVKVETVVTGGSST

[2] = target: T2, recombinant Fc-tag-fused human Notch-1 extracellular domain (Homo sapiens, UniProt P46531); experiment: as above
T2 construct: Notch-1, human, extracellular domain; No catalogue number and no residue limits are printed; also called N1; source: bought: R&D Systems
T2 sequence (P46531 19-1735): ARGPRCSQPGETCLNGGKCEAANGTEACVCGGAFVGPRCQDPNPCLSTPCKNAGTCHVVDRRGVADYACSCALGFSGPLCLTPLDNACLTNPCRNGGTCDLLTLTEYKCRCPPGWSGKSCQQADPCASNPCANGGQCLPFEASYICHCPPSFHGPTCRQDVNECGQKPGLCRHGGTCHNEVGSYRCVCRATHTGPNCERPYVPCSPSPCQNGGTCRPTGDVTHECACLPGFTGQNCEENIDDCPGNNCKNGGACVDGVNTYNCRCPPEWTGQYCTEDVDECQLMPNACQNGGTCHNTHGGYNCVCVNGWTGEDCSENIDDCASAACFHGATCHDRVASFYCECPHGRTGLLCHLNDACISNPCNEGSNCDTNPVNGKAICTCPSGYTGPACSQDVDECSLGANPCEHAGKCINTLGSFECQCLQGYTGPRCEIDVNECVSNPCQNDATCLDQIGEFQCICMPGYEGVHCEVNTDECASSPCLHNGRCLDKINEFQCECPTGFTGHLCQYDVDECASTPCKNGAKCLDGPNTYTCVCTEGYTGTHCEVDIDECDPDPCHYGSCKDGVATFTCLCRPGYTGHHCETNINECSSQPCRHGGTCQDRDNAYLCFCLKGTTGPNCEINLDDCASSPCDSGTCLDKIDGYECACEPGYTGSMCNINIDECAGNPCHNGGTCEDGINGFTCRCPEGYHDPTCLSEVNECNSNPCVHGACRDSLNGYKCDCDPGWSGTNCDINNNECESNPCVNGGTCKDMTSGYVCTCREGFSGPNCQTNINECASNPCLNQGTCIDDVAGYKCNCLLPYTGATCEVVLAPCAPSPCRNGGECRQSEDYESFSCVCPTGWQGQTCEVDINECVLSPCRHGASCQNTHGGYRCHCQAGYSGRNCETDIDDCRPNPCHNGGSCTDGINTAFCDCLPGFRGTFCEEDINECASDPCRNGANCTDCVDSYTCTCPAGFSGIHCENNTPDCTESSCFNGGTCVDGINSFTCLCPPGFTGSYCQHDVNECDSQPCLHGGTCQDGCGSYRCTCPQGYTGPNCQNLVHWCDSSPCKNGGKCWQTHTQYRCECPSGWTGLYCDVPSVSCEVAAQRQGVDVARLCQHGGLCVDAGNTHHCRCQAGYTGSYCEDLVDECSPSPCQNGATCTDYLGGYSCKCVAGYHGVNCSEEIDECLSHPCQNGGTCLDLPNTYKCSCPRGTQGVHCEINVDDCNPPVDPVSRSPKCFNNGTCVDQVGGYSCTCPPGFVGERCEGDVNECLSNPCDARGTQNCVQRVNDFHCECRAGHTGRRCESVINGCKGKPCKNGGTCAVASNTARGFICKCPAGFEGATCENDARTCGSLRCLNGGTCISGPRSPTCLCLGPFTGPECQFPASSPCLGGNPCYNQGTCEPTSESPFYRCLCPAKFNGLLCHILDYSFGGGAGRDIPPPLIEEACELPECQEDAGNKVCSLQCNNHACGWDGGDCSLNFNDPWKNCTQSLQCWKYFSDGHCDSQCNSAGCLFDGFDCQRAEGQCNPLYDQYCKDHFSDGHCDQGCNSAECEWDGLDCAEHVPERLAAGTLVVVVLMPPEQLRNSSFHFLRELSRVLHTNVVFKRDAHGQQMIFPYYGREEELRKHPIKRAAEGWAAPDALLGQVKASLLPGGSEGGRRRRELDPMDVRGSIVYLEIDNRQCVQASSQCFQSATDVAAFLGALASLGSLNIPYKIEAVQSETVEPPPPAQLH

[3] = target: T2, recombinant Fc-tag-fused human Notch-1 …; experiment: ELISA; multi-point Fab-ELISA: target immobilised at 5 ug/ml on MaxiSorp plates; purified Fab 0.01 nM-1 uM in PT for 30 min; detected with HRP-conjugated anti-HIS antibody; EC50 from a one-site specific-binding fit
[4] = target: T3, recombinant Fc-tag-fused human Notch-1 extracellular domain (Homo sapiens, UniProt P46531); experiment: BLI; Fabs immobilised on amine-reactive generation-2 or anti-Fab CH1 biosensors, target proteins in solution at at least three concentrations; 25°C, PBS; global fit to a 1:1 binding model; apparent constants (Fc fusions may dimerize)
T3 construct: Notch-1, human, extracellular domain; the R&D Systems product may hold only part of the ectodomain (surmise); also called N1; Fc-Notch; source: bought: R&D Systems
T3 sequence (P46531 19-1735): as above

[5] = target: T4, Jagged-2 receptor ectodomain (Homo sapiens (assumed), UniProt Q9Y219); experiment: as above
T4 construct: Jagged-2 ectodomain; Probably an Fc fusion like the Notch proteins (surmise); also called J2
T4 sequence (Q9Y219 27-1080): as the sequence (Q9Y219 27-1080) above

Kd [1]: 70.4 ± 2.3 nM | Kd [2]: 1.38 nM | EC50 [3]: ~4 nM
B1: Fab N1/F/R2 (purified soluble Fab) (Fab, V domains shown)
VH: EVQLVESGGGLVQPGGSLRLSCAASGFNFSSSSIHWVRQAPGKGLEWVASIYSYYGYTYYADSVKGRFTISADTSKNTAYLQMNSLRAEDTAVYYCARSWWGGSWYAALDYWGQGTLVTVSS
VL: DIQMTQSPSSLSASVGDRVTITCRASQSVSSAVAWYQQKPGKAPKLLIYSASSLYSGVPSRFSGSRSGTDFTLTISSLQPEDFATYYCQQWWSLITFGQGTKVEIK
notes: light chain on the modified trastuzumab framework of Library-F (Persson et al., 2013); CDRs L1 and L2 fixed; clone reconstructed from NGS information; Fab heavy chain on the modified trastuzumab framework of Library-F; medium CDRH3 length; The Fab is detected by an anti-HIS antibody; source: E. coli BL21, purified (Protein-L resin)

koff [4]: 6.91e-05 s⁻¹ | kon [4]: 54400 M⁻¹ s⁻¹ | koff [5]: 0.0226 s⁻¹ | kon [5]: 313000 M⁻¹ s⁻¹
B2: Fab N1/F/R2 (Fab, V domains shown)
VH: B1 VH
VL: B1 VL
notes: Library-F rare Fab reconstructed from NGS information, modified trastuzumab framework; Library-F rare Fab reconstructed from NGS information, modified trastuzumab framework, CDRs L1 and L2 fixed; The Fab has a His tag (detected with anti-HIS antibody and biosensors); Library-F framework: Persson et al., 2013; source: E. coli BL21, purified (Protein-L resin)
